Numbering of substitutions follows the chain as printed.

The target in data set [1] is T1, Hsh49p (Saccharomyces cerevisiae) (UniProt Q99181).
T1 sequence: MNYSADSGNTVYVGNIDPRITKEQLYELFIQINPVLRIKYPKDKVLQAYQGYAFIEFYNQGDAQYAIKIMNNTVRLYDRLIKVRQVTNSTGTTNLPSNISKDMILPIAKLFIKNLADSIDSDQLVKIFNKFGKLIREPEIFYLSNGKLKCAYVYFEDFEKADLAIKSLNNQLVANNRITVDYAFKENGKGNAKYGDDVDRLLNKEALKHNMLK
The data set can be described thus: fluorescence anisotropy. The following applies: 20 mM K-Hepes pH 7.5, 125 mM KCl, 1 mM EDTA, 5 mM DTT, 0.01% Igepal, E. coli tRNA (100 ng FA, 500 ng EMSA), 22°C 20 min; EMSA gels at 4°C.

The next data set addresses T2, Hsh49p (Saccharomyces cerevisiae, UniProt Q99181 1-213).
T2 sequence: T1 sequence
The experiment in a line: EMSA; up to 1.5 µM protein, E. coli tRNA; 20 mM K-Hepes pH 7.5, 125 mM KCl, 1 mM EDTA, 5 mM DTT, 0.01% Igepal, E. coli tRNA (100 ng FA, 500 ng EMSA), 22°C 20 min; EMSA gels at 4°C. The conditions noted are these: protein: recombinant, tags: His-TEV tag (cleaved), label: 3' fluorescein. A general note: A gel shift assay detects complexes by their altered migration in electrophoresis.

Data set [2] addresses T3, Hsh49p;Cus1(290-368)p (Saccharomyces cerevisiae;Saccharomyces …, UniProt Q99181;Q02554 1-213;290-368, |).
T3 sequence 1: T1 sequence
T3 sequence 2: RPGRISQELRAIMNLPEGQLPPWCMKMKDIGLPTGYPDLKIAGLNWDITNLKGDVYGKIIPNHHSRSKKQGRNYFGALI
Described as above. The conditions noted are these: protein: recombinant;recombinant, tags: His-TEV tag (cleaved);none stated, coexpressed, copies: 1;1, label: 3' fluorescein.

The next data set addresses T4, Hsh49p RRM2 (Saccharomyces cerevisiae, UniProt Q99181 108-185).
T4 sequence: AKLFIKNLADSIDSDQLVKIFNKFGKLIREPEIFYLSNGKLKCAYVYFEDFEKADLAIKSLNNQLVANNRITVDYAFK
The data set can be described thus: fluorescence anisotropy; 20 mM K-Hepes pH 7.5, 125 mM KCl, 1 mM EDTA, 5 mM DTT, 0.01% Igepal, E. coli tRNA (100 ng FA, 500 ng EMSA), 22°C 20 min; EMSA gels at 4°C. The conditions noted are these: protein: recombinant; tags: His-TEV tag (cleaved); label: 3' fluorescein; hairpin. On the technique in general: In fluorescence polarisation assays a small probe gives low polarisation when free and higher when bound to something large.

Data set [3] has as its target T3, Hsh49p;Cus1(290-368)p. The description is as above. The conditions noted are these: protein: recombinant;recombinant; tags: His-TEV tag (cleaved);none stated; coexpressed; copies: 1;1; label: 3' fluorescein; hairpin with single-stranded flanks.
Data set [4] addresses T3, Hsh49p;Cus1(290-368)p. The experiment in a line: fluorescence anisotropy; pseudouridines have no large effect; 20 mM K-Hepes pH 7.5, 125 mM KCl, 1 mM EDTA, 5 mM DTT, 0.01% Igepal, E. coli tRNA (100 ng FA, 500 ng EMSA), 22°C 20 min; EMSA gels at 4°C. The conditions noted are these: protein: recombinant;recombinant; tags: His-TEV tag (cleaved);none stated; coexpressed; copies: 1;1; label: 3' fluorescein; hairpin with single-stranded flanks.

Data set [5] concerns the target T3, Hsh49p;Cus1(290-368)p. The experiment in a line: fluorescence anisotropy; similar to RRM1-Cus1(290-368)p; 20 mM K-Hepes pH 7.5, 125 mM KCl, 1 mM EDTA, 5 mM DTT, 0.01% Igepal, E. coli tRNA (100 ng FA, 500 ng EMSA), 22°C 20 min; EMSA gels at 4°C. The conditions noted are these: protein: recombinant;recombinant; tags: His-TEV tag (cleaved);none stated; coexpressed; copies: 1;1; label: 3' fluorescein; hairpin with 5' single strand.

In data set [6] the target is T5, Hsh49p Tyr152Ala-Tyr154Ala (RRM2 mutant);Cus1(290-350)p (Saccharomyces cerevisiae;Saccharomyces …, UniProt Q99181;Q02554 1-213;290-350, Y152A;Y154A|).
T5 sequence 1: T1 sequence with Y152A, Y154A
T5 sequence 2: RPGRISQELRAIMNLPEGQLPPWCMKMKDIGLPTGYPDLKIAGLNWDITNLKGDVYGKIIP
The data set can be described thus: fluorescence anisotropy; mutation has no effect; 20 mM K-Hepes pH 7.5, 125 mM KCl, 1 mM EDTA, 5 mM DTT, 0.01% Igepal, E. coli tRNA (100 ng FA, 500 ng EMSA), 22°C 20 min; EMSA gels at 4°C. The following applies: protein: recombinant;recombinant; tags: His-TEV tag (cleaved);none stated; coexpressed; copies: 1;1; label: 3' fluorescein; hairpin with 5' single strand.

In data set [7] the target is T6, Hsh49p Tyr52Ala-Phe54Ala (RRM1 mutant);Cus1(290-350)p (Saccharomyces cerevisiae;Saccharomyces …, UniProt Q99181;Q02554 1-213;290-350, Y52A;F54A|).
T6 sequence 1: T1 sequence with Y52A, F54A
T6 sequence 2: T5 sequence 2
The experiment in a line: fluorescence anisotropy; 20 mM K-Hepes pH 7.5, 125 mM KCl, 1 mM EDTA, 5 mM DTT, 0.01% Igepal, E. coli tRNA (100 ng FA, 500 ng EMSA), 22°C 20 min; EMSA gels at 4°C. The following applies: protein: recombinant;recombinant; tags: His-TEV tag (cleaved);none stated; coexpressed; copies: 1;1; label: 3' fluorescein; hairpin with 5' single strand.

For another data set, the target named is T7, HisHsh49p (S. cerevisiae, UniProt Q99181 1-213).
T7 construct: Hsh49p, S. cerevisiae; Held on Ni-NTA resin by its His tag after the trypsin digest; also called His-tagged Hsh49p; source: E. coli, coexpressed with Cus1(121-392)p, purified as complex; not shown: His6, N-terminal, kept
T7 sequence (looked up): T1 sequence
The data set can be described thus: pull-down; purified HisHsh49p–Cus1 complex (40 µM) cut with trypsin (10 µg/mL, 10 min, 22°C), His-tagged Hsh49p held on Ni-NTA resin; fragments told by N-terminal sequencing and MALDI-TOF. The following applies: both partners purified.

Consider “ACGAAUCUCUUUGCCUUUUGGCUUAGAUCAAGUGUAGUAUCUGUUCU [5'SLIBPRS]”, for which the binding signal (fold weaker than Hsh49p-Cus1(290-368)p) in data set [1] stood at 10.

B1: SLIIa (structured_RNA)
RNA: UUUCAGUGUAACAACUGAAA
Take B1: the binding result in the data set with Hsh49p (hairpin), with Hsh49p;Cus1(290-368)p [2] (hairpin) and with Hsh49p RRM2 was “no binding” in each case.

B2: BPRS (ssRNA)
RNA: UCAAGUGUAGUAUCUGUUCU
Take B2: the binding result with Hsh49p and in the data set with Hsh49p;Cus1(290-368)p [2] was “no binding” in each case.

B3: SLIIb (structured_RNA)
RNA: UGACCUCAAUGAGGCUCA
B3: the binding result with Hsh49p (hairpin), with Hsh49p;Cus1(290-368)p [2] (hairpin) and with Hsh49p RRM2 was “no binding” each time.

B4: 5'SLIBPRS (structured_RNA)
RNA: ACGAAUCUCUUUGCCUUUUGGCUUAGAUCAAGUGUAGUAUCUGUUCU
For B4, in the data set with Hsh49p;Cus1(290-368)p [3], the binding signal is ~10 fold stronger than Hsh49p alone.

B5: 5'SLIBPRS-pseu (structured_RNA)
RNA: B4 RNA
modifications: pseudouridines around the BPRS (positions in figure)
In the case of B5, the binding result with Hsh49p;Cus1(290-368)p [4] is reported as “binds”.

B6: 5'SLI (structured_RNA)
RNA: ACGAAUCUCUUUGCCUUUUGGCUUAGA
B6: the binding result with Hsh49p;Cus1(290-368)p [5] is given as “binds”; with Hsh49p (hairpin with 5' single strand), “no binding”; in data set [6], “binds”. In addition, in data set [7], the binding signal is ~10 fold lower affinity than wild type.

B7: Cus1p fragment comprising residues 285-355 (domain or fragment, S. cerevisiae, UniProt Q02554 285-355, looked up)
chain: MVDHKRPGRISQELRAIMNLPEGQLPPWCMKMKDIGLPTGYPDLKIAGLNWDITNLKGDVYGKIIPNHHSR
notes: also called digested Cus1p fragment; source: trypsin digest of the purified HisHsh49p-Cus1 complex made in E. coli
For B7, the binding result with HisHsh49p is reported as “binds”.

B8: SLI (structured_RNA)
RNA: UCUUUGCCUUUUGGCUUAGA
Turning to B8, the binding result with Hsh49p (hairpin) and in the data set with Hsh49p;Cus1(290-368)p [2] (hairpin) was “no binding” each time.

The values are drawn from paper PMC5435868, “Crystal structure of U2 snRNP SF3b components: Hsh49p in complex with Cus1p-binding domain” (RNA, 2017).
